Assay results published in publication PMC4487810.
Where a chain is given by its changes, count along the chain named. Numbers in names are those of the source.

B1: 2-hydroxyethylphosphonate dioxygenase (HEPD) (Streptomyces viridochromogenes DSM 40736) (protein)
chain: MRIDPFKLAHWMNARKYTAAQTADLAGLPLDDLRRLLGDEANEPDPAAATALAEALSVEPSQLAADAHRNLTVVHKSAEEMHASRRPIQRDGIHFYNYYTLAAPEGRVAPVVLDILCPSDRLPALNNGHLEPAITVNLGPGDINGRWGEEITPQTWRVLHANHGGDRWITGDSYVEPSYCPHSYSLAGDAPARIVSYTAQSNISPLMTEANNWSTGAFEEALKALSGKVSAGSVLDLFLARRAHTRTSAAEAAGVPPADLEAALRSPASETGLTVLRTLGRALGFDYRVLLPADDQHDGVGKTWTTIEDSRRSRRTFGTYEAASMASAAHLPDLVGSFLRVDADGRGADLIDHAENHYVVTEGRLTLEWDGPDGPASVELEPDGSAWTGPFVRHRWHGTGTVLKFGSGAHLGYQDWLELTNTFEPAATLRRGRRDLAGWGYDN
B2: 2-hydroxyethylphosphonate dioxygenase (HEPD) (Streptomyces viridochromogenes DSM 40736; E176H) (protein)
chain: B1 chain with E176H

Substrate: O=P(O)(O)CCO
Experiment: purified protein
Conditions: O2 co-substrate
[1] = enzyme saturated with Fe(II) (more than 1 equivalent)

Protein	Km (Fe(II))	kcat (Fe(II))	Km (Fe(II), labelled compound)	kcat (Fe(II), labelled compound)	Km [1]	kcat [1]
B1	8 ± 1 µM	0.3 ± 0.01 s⁻¹	10 ± 2 µM	0.31 ± 0.01 s⁻¹	–	–
B2	–	–	–	–	23 ± 3 µM	0.38 ± 0.01 s⁻¹
